Results from US20250092426, “CAS ENDONUCLEASES AND RELATED METHODS” (Flagship Pioneering Innovations VII, LLC, published 2025).

Biological target: T1, CasEnd-33 (synthetic construct)
T1 chain: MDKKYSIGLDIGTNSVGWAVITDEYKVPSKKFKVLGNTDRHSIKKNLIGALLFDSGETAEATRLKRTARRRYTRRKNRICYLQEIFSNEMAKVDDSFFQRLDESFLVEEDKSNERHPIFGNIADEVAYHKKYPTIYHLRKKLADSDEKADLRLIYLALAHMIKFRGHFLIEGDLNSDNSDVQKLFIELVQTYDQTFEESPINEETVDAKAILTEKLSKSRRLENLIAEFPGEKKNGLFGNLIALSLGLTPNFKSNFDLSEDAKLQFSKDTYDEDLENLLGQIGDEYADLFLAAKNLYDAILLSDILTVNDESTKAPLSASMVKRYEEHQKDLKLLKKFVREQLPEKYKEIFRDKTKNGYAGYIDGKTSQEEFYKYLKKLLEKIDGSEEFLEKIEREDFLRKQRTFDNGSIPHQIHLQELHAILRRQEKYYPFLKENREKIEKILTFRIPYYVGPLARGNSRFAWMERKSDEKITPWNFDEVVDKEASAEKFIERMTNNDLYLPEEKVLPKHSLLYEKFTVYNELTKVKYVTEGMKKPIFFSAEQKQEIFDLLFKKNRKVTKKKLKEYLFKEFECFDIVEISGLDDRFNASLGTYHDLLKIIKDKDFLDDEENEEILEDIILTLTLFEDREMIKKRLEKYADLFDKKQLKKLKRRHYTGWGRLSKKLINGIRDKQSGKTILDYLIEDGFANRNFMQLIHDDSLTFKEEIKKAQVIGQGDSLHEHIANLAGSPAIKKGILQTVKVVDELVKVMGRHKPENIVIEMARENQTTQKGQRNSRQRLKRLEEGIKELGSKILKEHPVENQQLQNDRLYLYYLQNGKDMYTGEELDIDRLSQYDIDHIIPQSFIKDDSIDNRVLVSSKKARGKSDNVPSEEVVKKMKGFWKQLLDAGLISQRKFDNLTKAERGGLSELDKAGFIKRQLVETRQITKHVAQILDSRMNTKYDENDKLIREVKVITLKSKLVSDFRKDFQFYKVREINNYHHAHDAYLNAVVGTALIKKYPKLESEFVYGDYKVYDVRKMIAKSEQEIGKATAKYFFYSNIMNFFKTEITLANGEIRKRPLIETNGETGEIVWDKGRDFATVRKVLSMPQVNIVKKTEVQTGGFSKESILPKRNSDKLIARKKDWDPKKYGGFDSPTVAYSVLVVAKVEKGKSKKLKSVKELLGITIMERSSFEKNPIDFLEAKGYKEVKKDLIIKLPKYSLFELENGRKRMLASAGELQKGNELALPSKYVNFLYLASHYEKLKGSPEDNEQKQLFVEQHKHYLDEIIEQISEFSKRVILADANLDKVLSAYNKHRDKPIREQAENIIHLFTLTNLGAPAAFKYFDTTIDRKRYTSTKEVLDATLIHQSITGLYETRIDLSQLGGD
Assay: cell_activity; +++; HEK293T; PAM not stated
Method in brief: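 Editing activity was scored as the fraction of GFP+ cells on day 4 by flow cytometry. BFP-expressing HEK293T cells (250,000) received by nucleofection 200 ng plasmid for the RT-Cas fusion protein and 200 ng template RNA plasmid designed to convert BFP to GFP.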

B1: BFP-to-GFP template RNA ; BFP reporter protospacer (ssRNA ; dsDNA)
RNA: GCCGAAGCACUGCACGCCGUGUUUUAGAGCUAGAAAUAGCAAGUUAAAAUAAGGCUAGUCCGUUAUCAACUUGAAAAAGUGGCACCGAGUCGGUGCACCCUGACGUACGGCGUGCAGUGCUU
DNA 1: GCCGAAGCACTGCACGCCGT
DNA 2: ACGGCGTGCAGTGCTTCGGC
activity: ≥ 100 % of reference
